Measured values as given in US20250355001A1 (GTINVENT, published 2025).
Like-named read-outs stand apart in the source and are kept apart here. Where no end group is shown, it is not given here. The star is where a group is joined. Biotin = O=C1N[C@H]2[C@H](CS[C@H]2CCCCC(=O)*)N1

How the values were obtained:
[1] = molecular target: T1, tau peptide 341-353 (human); assay: ELISA on biotinylated peptide over streptavidin
T1 peptide: Biotin-SEKLDFKDRVQSK
Experimental: (§1) A series of binding ELISA was performed using various truncated versions of the tau protein and 13mer peptide libraries spanning the entire hT40 molecule for mapping the epitopes of anti-tau scAbs (Full list of protein antigens used is given in Table 14). In general, ELISA plates were coated with 1 μg/ml hT40 or dGA or dGAE or other truncated versions of the protein and in the case of biotinylated peptides, plates were coated with 5 μg/ml Streptavidin followed by 1 μg/ml biotinylated peptide. The plates were blocked with 2% MPBS and scAb samples added at desired starting concentrations and double diluted across the plate. Binding was detected using anti-Human C Kappa HRP conjugated secondary antibody and the resulting immunoreaction was developed and absorbance values measured as described above.

[2] = molecular target: T2, dGAE (tau 297-391) (human, UniProt P10636 614-708); assay: direct ELISA
T2 construct: monomer; also called dGAE95

[3] = molecular target: T3, full length human tau protein 2N4R (hT40) (human, UniProt P10636 1-758); assay: hT40 ELISA
T3 construct: recombinant; also called T441
T3 sequence (P10636 other isoform, or with tags, fused parts or gaps limits assumed): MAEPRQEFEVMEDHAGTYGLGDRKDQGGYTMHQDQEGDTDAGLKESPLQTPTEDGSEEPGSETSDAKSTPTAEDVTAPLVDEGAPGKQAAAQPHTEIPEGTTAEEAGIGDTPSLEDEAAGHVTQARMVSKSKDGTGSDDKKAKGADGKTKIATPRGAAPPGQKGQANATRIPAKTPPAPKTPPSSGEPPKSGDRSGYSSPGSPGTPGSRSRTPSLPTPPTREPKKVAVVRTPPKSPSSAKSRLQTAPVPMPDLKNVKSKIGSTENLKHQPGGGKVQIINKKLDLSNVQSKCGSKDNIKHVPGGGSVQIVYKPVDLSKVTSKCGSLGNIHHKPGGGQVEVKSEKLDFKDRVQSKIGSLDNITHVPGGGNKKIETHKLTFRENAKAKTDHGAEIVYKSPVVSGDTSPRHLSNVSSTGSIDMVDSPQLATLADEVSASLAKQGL

[4] = molecular target: T4, tau fragment 266-359 (R1-3) (human, UniProt P10636 583-676); assay: direct ELISA
T4 sequence (P10636 583-676): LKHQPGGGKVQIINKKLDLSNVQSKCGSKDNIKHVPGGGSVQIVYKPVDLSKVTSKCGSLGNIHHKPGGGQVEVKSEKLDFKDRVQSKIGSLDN

[5] = molecular target: T3, full length human tau protein 2N4R …; assay: hT40 ELISA; remark: listed apart in the source
[6] = molecular target: tau fragment 337-368 (human); assay: direct ELISA
tau fragment 337-368 (human), sequence (peptide, as listed by the source): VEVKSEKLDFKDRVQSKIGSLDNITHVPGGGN

[7] = molecular target: T3, full length human tau protein 2N4R …; assay: SPR, summary table
Procedure, shortened: (§2)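 scAb captured on flow cell 2 of an antibody-coated chip, flow cell 1 as reference; tau analyte injected 120 s association, 420 s dissociation, glycine pH 2.0 regeneration, in multi-cycle or single-cycle kinetics format. Responses fitted to a 1:1 binding model for kinetics and affinity.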

[8] = molecular target: T5, dGA (tau 297-390) (human, UniProt P10636 614-707); assay: SPR, scAb captured, tau analyte
Procedure, shortened: as §2
Target sequence in this assay (P10636 614-707 limits assumed): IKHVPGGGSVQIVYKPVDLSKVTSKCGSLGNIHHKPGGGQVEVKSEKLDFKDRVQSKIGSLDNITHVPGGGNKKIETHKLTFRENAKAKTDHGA

[9] = molecular target: T3, full length human tau protein 2N4R …; assay: SPR, scAb captured, tau analyte
Procedure, shortened: as §2

[10] = molecular target: T6, tau fragment 186-350 (human, UniProt P10636 503-667); assay: direct ELISA
T6 construct: also called m186-350
T6 sequence (P10636 503-667): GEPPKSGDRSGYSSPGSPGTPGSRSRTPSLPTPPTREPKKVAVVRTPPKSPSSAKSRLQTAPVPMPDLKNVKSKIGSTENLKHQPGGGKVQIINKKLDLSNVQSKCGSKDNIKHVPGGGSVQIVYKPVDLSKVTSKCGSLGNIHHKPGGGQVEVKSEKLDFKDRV

[11] = molecular target: T7, tau peptide 306-323; assay: peptide ELISA
T7 peptide: Biotin-VQIVYKPVDLSKVTSKCG

[12] = molecular target: T8, tau peptide 313-336 (human); assay: peptide ELISA
T8 peptide: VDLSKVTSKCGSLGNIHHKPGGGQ

[13] = molecular target: T4, tau fragment 266-359 (R1-3); assay: direct ELISA; remark: listed apart in the source
[14] = molecular target: T9, tau fragment 369-391 (human); assay: direct ELISA
T9 peptide: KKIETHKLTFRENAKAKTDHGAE

[15] = molecular target: T10, tau fragment 369-390 (human); assay: direct ELISA
T10 peptide: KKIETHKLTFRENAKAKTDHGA

[16] = molecular target: tau fragment 337-368 (human); assay: direct ELISA; remark: listed apart in the source
[17] = molecular target: T9, tau fragment 369-391; assay: ELISA
Experimental: as §1

[18] = molecular target: T10, tau fragment 369-390; assay: ELISA
Experimental: as §1

[19] = molecular target: T5, dGA (tau 297-390); assay: ELISA
Experimental: as §1

[20] = molecular target: T3, full length human tau protein 2N4R …; assay: ELISA
Experimental: as §1

[21] = molecular target: T2, dGAE (tau 297-391); assay: ELISA
Experimental: as §1

B1: S1D12 scAb (scFv, not shown: small tags and cut ends)
scFv: QVQLQESGPSLVKPSQTLSLTCTVSGFSLNNNAVGWVRQAPGKVPESLVGCSSDGTCYYNSALKSRLDITRDTSKNQISLSLSSVTTDDAAVYYCTRGHYSIYGYDYLGTIDYWGPGLLVTVSSEGKSSGASGESKVDDQAVLTQPSSVSGSLGQRVSITCSGSSSNVGGGNSVGWYQHLPGSGLKTIIYDTNSRPSGVPDRFSGSRSGNTATLTINSLQAEDEGDYYCVTGDSTTHDDLVGSGTRLTVLG
notes: scAb
EC50 (read off the curve) [1]: ~0.8 mg/L
EC50 (read off the curve) [2]: ~3 mg/L
EC50 (read off the curve) [3]: ~0.005 mg/L
EC50 (read off the curve) [4]: ~0.5 mg/L
EC50 (read off the curve) [5]: ~1 mg/L
EC50 (read off the curve) [6]: ~4 mg/L
Kd [7]: 0.122 nM
Kd [8]: 0.344 nM
koff [8]: 0.000418 s⁻¹
kon [8]: 1.21e+06 M⁻¹ s⁻¹
Kd [9]: 0.122 nM
koff [9]: 0.00015 s⁻¹
kon [9]: 1.25e+06 M⁻¹ s⁻¹
EC50 (read off the curve) [10]: ~2 mg/L

B2: E1B8 scAb (scFv, not shown: small tags and cut ends)
scFv: QVQLQESGPSLVKPSQTLSLTCTVSGFSLTNYPVGWVRQAPGKALEWIGNIENDGSANYASALKSRLSITRDTSKNQVSLSLSSATTEDTAVYYCGREFGGSDGYTYFVDIDYWGPGLLVTVSSEGKSSGASGESKVDDQAVLTQPSSVSKSLGQSVSITCSGSSSNVGYGNYVSWFQQVPGSAPKILIYGATSRASGVPDRFSGSRSGNTATLTITSLQAEDEADYYCASYDGSSSGVFGSGTRLTVLG
notes: scAb
binding result [11]: no binding (tested: 25 ug/ml)
EC50 (read off the curve) [12]: ~2 mg/L
Kd [8]: 17.7 nM
koff [8]: 0.00242 s⁻¹
kon [8]: 137000 M⁻¹ s⁻¹

B3: NS2A1 scAb (scFv, not shown: small tags and cut ends)
scFv: QVQLQESGPSLVKPSQTLSLTCTVSGFSLSTNSVGWVRQAPGKAPEWVAGIDTDGEEGFNPVLKSRLSITRDTSKSQVSLSLSNVTSEDTAVYYCGRSYRTDGLAYGYVQAIDYWGPGLLVTISSEGKSSGASGESKVDDQSVLTQPSSVSGSPGQTVSITCSGSYIGSSGVGWFQQLPGSGLRTIIVASDGRPSGVPDGFSMSKSGNTATLTISSLQAEDEADYFCGSSDRTQYTGLFGSGTRLTVLG
notes: scAb
binding result [13]: no binding (tested: 25 ug/ml)
Kd [7]: 2.9 nM
Kd [8]: 5.4 nM
koff [8]: 0.00102 s⁻¹
kon [8]: 188000 M⁻¹ s⁻¹
Kd [9]: 2.9 nM
koff [9]: 0.000739 s⁻¹
kon [9]: 252000 M⁻¹ s⁻¹
binding result [14]: no binding (tested: 25 ug/ml)
binding result [15]: no binding (tested: 25 ug/ml)
binding result [16]: no binding (tested: 25 ug/ml)

B4: MD9/MoD9 scAb (scFv, not shown: small tags and cut ends)
scFv: QVRLQESGPSLVKSSQTLSLTCTVSGFSLTRESIAWVRQAPGKVPEWLGGVGIDGTSYYSPALKSRLSITRDTSKSQASLSLSSVATEDTAMYYCARNYIDFEYWGPGLLVTVSSEGKSSGASGESKVDDQAVLTQLSSVSGSLGQRISITCSGSSSNVGIYDVSWFQQLPGSGLRTVIYGTNNRPSGVPDRFSGSRSGNTATLTISSLQSEDEAIYYCAAGDSSTIAVFGSGTRLTVLG
notes: scAb
binding result [17]: binds
binding result [18]: binds
binding result [19]: binds
binding result [20]: binds
binding result [21]: binds
